Experimental data taken from US20220402990.

How the values were obtained:
[1] = tested on: Activatable cytokine construct IFN-α-2b 1490DNI-hIgG4
[2] = tested on: Activatable cytokine construct IFN-α2b-1204DNIdl-hIgG4
[3] = tested on: Activatable cytokine construct ProC440 (N IFNα2b 0 1204DNIdL 0AA Fc)
[4] = tested on: IFN-α2b-1204DNIdl-hIgG4 with five amino acid residues added to the linker

recombinant human urokinase-type plasminogen activator (uPA)
protease cleavage, gel electrophoresis [1]: The results suggest that the proteases were effective at cleaving the cleavable moieties in the activatable cytokine constructs
protease cleavage, gel electrophoresis [2]: The results suggest that the proteases were effective at cleaving the cleavable moieties in the activatable cytokine constructs
protease cleavage, mass spectrometry [3]: Cleavage with uPa at the expected site in the CM was confirmed by Mass spectrometry analysis
protease cleavage, gel electrophoresis [4]: The results suggest that the proteases were effective at cleaving the cleavable moieties in the activatable cytokine constructs
